Reference: patent publication US20240148895A1 (EISAI R AND D MANAGEMENT, published 2024)

T1: human CEACAM6 extracellular domain-SEAP-His protein (human)
T1 chain: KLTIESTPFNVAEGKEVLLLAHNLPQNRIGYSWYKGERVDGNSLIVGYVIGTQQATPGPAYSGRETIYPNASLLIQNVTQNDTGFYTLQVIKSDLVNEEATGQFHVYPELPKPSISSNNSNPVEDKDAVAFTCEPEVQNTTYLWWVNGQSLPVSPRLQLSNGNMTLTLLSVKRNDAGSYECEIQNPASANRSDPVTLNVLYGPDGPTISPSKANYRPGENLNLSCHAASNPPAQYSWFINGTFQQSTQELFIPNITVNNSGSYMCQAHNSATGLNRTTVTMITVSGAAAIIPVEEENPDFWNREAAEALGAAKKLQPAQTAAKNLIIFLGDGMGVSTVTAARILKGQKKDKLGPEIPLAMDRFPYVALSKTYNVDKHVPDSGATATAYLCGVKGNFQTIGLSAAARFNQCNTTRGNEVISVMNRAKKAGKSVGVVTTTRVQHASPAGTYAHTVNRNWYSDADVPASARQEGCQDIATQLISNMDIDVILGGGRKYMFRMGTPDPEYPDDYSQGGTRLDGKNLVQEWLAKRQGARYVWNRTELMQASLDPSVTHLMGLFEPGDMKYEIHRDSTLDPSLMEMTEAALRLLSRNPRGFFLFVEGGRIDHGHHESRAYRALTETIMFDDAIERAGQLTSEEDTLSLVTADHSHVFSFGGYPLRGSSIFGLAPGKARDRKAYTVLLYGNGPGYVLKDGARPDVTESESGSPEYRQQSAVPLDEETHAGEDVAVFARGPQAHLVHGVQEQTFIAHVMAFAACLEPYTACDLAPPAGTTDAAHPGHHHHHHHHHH

T2: human CEACAM6 expressed on Pan02/Pgp-KO/hCEACAM6 cells (human, UniProt P40199 35-320)
T2 construct: also called carcinoembryonic antigen-related cell adhesion molecule 6; CD66c
T2 sequence: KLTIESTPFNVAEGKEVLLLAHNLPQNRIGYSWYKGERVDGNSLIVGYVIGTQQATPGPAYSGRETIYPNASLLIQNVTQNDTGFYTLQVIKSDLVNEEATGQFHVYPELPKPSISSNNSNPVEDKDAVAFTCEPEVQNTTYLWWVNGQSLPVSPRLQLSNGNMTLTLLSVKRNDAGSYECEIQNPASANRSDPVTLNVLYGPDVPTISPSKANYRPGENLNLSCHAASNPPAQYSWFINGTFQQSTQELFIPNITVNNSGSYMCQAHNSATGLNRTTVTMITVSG

B1: human antibody fragment (scFv) specifically binding to human CEACAM6, from which antibody A was designed (scFv, V domains shown)
VH: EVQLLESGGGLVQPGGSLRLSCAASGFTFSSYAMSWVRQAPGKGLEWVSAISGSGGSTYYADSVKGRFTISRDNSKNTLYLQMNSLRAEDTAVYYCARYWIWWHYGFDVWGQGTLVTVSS
VL: SSELTQDPAVSVALGQTVRITCQGDSLRSYYASWYQQKPGQAPVLVIYGKNNRPSGIPDRFSGSSSGNTASLTITGAQAEDEADYYCQSYYSSSHYVVFGGGTKLTVL
notes: Tested as a single-chain FLAG-tagged scFv in E. coli culture supernatant; also called FLAG-tagged scFv
B2: antibody A (human anti-CEACAM6_#84.7 monoclonal antibody) (antibody, human IgG1, lambda, V domains shown)
VH: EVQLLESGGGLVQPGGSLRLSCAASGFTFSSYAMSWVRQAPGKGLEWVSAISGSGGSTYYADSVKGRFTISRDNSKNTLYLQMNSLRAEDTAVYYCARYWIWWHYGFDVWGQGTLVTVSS
VL: SSELTQDPAVSVALGQTVRITCQGDSLRSYYASWYQQKPGQAPVLVIYGKNNRPSGIPDRFSGSSSGNTASLTITGAQAEDEADYYCQSYYSSSHYVVFGGGTKLTVLG
notes: The heavy chain constant region is human IgG1/2m: IgG1 CH1 and hinge, IgG2 CH2 and CH3 with V234A and G237A (Eu numbering); The light chain constant region is human Ig lambda

Key:
[1] = target: T1, human CEACAM6 extracellular …; test: ELISA: FLAG-tagged scFv from E. coli supernatant captured on anti-FLAG antibody, 20 nM antigen, HRP-labeled anti-His antibody detection, absorbance at 450 nm
Procedure: (§1) After the second panning procedure, a single colony from the concentrated phage-infected TG1 cells was transferred to culture medium on a 96-well plate. IPTG was added to induce expression of the FLAG-tagged scFv, and vibration culture was carried out overnight at 30° C. The TG1 cells were spinned down and the scFv-containing E. coli culture supernatant was used to pickup the wells that were reactive with human CEACAM6.
(§2) Reactivity with human CEACAM6 was evaluated by ELISA according to the following procedure, using either human CEACAM6 extracellular domain-SEAP-His protein or human CEACAM6 extracellular domain-MBP-His protein. The wells of a 96-well plate (Nunc) were coated with anti-FLAG antibody (Sigma). After incubation overnight at 4° C., the wells were blocked with 2% skim milk (BD) for 2 hours at room temperature. After rinsing 3 times with 0.02% Tween20/PBS (Nacalai Tesque, Inc.), human CEACAM6 extracellular domain-SEAP-His protein or human CEACAM6 extracellular domain-MBP-His protein (final concentration: 20 nM) and E. coli culture supernatant containing scFv were added to each well and incubation was continued for 2 hours at room temperature. […] An equivalent of stopping solution (1N H₂SO₄, FujiFilm Wako Pure) was added to each well, and the absorbance at 450 nm was read off using a microplate reader (Thermo Scientific). […]

[2] = target: human CEACAM6 extracellular domain-MBP-His protein (human); test: as above
Procedure: as §1, §2

[3] = target: T2, human CEACAM6 expressed on …; test: flow cytometry sorting ([..] II) of Pan02 cells transfected with human CEACAM6
Source text: The mouse pancreatic cancer cell line Pan02 (National Institutes of Health) was transfected with recombinant Cas9 protein (Alt-R S.p. HiFi Cas9 V3, Integrated DNA Technologies), and mouse Abcb1a and single guided RNA (Aft-R CRISPR sgRNA, Integrated DNA Technologies) for Abcb1b, using a NEPA21 Super Electroporator (Nepa Gene). The obtained cells were further transfected with human CEACAM6 using pLV[Exp]-Puro-EFS lentiviral vector (VectorBuilder) and MISSION Lentiviral Packaging Mix (Sigma-Aldrich). […] The established cells were designated as cell line Pan02/Pgp-KO/hCEACAM6, and were maintenance cultured in a 5% CO₂ incubator (37° C.) using RPMI (FujiFilm-Wako Pure Chemical Industries) containing 10% fetal bovine serum (FBS: SIGMA 173012) and penicillin/streptomycin (FujiFilm-Wako Pure Chemical Industries) (hereunder referred to simply as “culture medium”).

| Binder | binding result [1] | binding result [2] | binding result [3] |
| --- | --- | --- | --- |
| B1 | binds | binds | – |
| B2 | – | – | binds |
